How the values were obtained:
[1] = molecular target: HIV-1 MGRM-D-001 Env (HIV-1); assay: cell-based or functional assay
[2] = molecular target: HIV-1 Env of isolate MGRM-D-019 (pseudovirus) (HIV-1); assay: cell-based or functional assay
[3] = molecular target: HIV-1 MGRM-AG-005 Env (HIV-1); assay: cell-based or functional assay
[4] = molecular target: HIV-1 JR-CSF Env I309A (HIV-1 (isolate JR-CSF, clade B)) (UniProt P20871); assay: cell-based or functional assay
[5] = molecular target: HIV-1 APV13 Env (HIV-1); assay: cell-based or functional assay
[6] = molecular target: HIV-1 APV17 Env (HIV-1); assay: cell-based or functional assay
[7] = molecular target: HIV-1 JR-CSF Env K305A (HIV-1 (isolate JR-CSF, clade B)) (UniProt P20871); assay: cell-based or functional assay
[8] = molecular target: HIV-1 MGRM-D-018 envelope glycoprotein (Env) on pseudovirus (HIV-1); assay: cell-based or functional assay
[9] = molecular target: HIV-1 92UG024 envelope glycoprotein (Env) on pseudovirus (HIV-1); assay: cell-based or functional assay
[10] = molecular target: HIV-1 APV6 envelope glycoprotein (Env) on pseudovirus (HIV-1); assay: cell-based or functional assay
[11] = molecular target: HIV-1 APV13 envelope glycoprotein (Env) on pseudovirus (HIV-1); assay: cell-based or functional assay
[12] = molecular target: HIV-1 93IN905 envelope glycoprotein (Env) on pseudovirus (HIV-1); assay: cell-based or functional assay
[13] = molecular target: HIV-1 MGRM-D-001 envelope glycoprotein (Env) on pseudovirus (HIV-1); assay: cell-based or functional assay
[14] = molecular target: HIV-1 APV17 envelope glycoprotein (Env) on pseudovirus (HIV-1); assay: cell-based or functional assay
[15] = molecular target: HIV-1 NL43 envelope glycoprotein (Env) on pseudovirus (HIV-1); assay: cell-based or functional assay
[16] = molecular target: HIV-1 MGRM-C-027 envelope glycoprotein (Env) on pseudovirus (HIV-1); assay: cell-based or functional assay
[17] = molecular target: HIV-1 JR-CSF Env T202A (HIV-1 (isolate JR-CSF)) (UniProt P20871); assay: cell-based or functional assay
[18] = molecular target: HIV-1 JR-CSF Env T320A (HIV-1 (isolate JR-CSF, clade B)) (UniProt P20871); assay: cell-based or functional assay
[19] = molecular target: HIV-1 JR-CSF Env Q337A (HIV-1 isolate JR-CSF) (UniProt P20871); assay: cell-based or functional assay
[20] = molecular target: HIV-1 envelope glycoprotein (Env) of isolate 92WR026, subtype A (HIV-1); assay: cell-based or functional assay
[21] = molecular target: HIV-1 JR-CSF Env N355A (HIV-1 isolate JR-CSF) (UniProt P20871); assay: cell-based or functional assay
[22] = molecular target: HIV-1 envelope glycoprotein (Env) of isolate MG RM-A-002, subtype A (HIV-1); assay: cell-based or functional assay
[23] = molecular target: HIV-1 Env of isolate MGRM-F1-014 (pseudovirus) (HIV-1); assay: cell-based or functional assay
[24] = molecular target: HIV-1 JR-CSF Env N332A (HIV-1 isolate JR-CSF) (UniProt P20871); assay: cell-based or functional assay
[25] = molecular target: HIV-1 envelope glycoprotein (Env) of isolate 92BR020, on pseudovirus (HIV-1); assay: cell-based or functional assay
[26] = molecular target: HIV-1 Env of isolate 93UG077 (Clade A) (HIV-1); assay: cell-based or functional assay
[27] = molecular target: HIV-1 Env of isolate 92UG024 (Clade D) (HIV-1); assay: cell-based or functional assay
[28] = molecular target: HIV-1 Env of isolate CMU02 (CRF01_AE) (HIV-1); assay: cell-based or functional assay
[29] = molecular target: HIV-1 Env of isolate 92UG005 (Clade D) (HIV-1); assay: cell-based or functional assay
[30] = molecular target: HIV-1 Env of isolate 92BR020 (Clade B) (HIV-1); assay: cell-based or functional assay
[31] = molecular target: HIV-1 Env of isolate IAVI-C22 (Clade C) (HIV-1); assay: cell-based or functional assay
[32] = molecular target: JR-FL GP120 ΔV3 (HIV-1 JR-FL); assay: ELISA, antigen-coated wells, mAb titrated; EC50 by nonlinear regression
[33] = molecular target: HIV-1 Env of isolate IAVI-C18 (Clade C) (HIV-1); assay: cell-based or functional assay
[34] = molecular target: HIV-1 JR-CSF Env R327A (HIV-1 isolate JR-CSF) (UniProt P20871); assay: cell-based or functional assay
[35] = molecular target: HIV-1 envelope glycoprotein (Env) of isolate 94UG103 (HIV-1); assay: cell-based or functional assay

PGT-141 (4964_G22; 4993_K13) (antibody), sequence (VH): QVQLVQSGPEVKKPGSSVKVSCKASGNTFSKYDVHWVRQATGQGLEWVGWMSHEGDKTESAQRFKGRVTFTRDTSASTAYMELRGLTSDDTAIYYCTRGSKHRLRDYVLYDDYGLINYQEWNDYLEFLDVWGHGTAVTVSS
PGT-141 (4964_G22; 4993_K13) (antibody), sequence (VL): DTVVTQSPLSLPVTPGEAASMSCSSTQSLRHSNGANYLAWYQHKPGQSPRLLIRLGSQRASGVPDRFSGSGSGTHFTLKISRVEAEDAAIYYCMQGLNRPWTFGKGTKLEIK
PGT-142 (4995_E20) (antibody), sequence (VH): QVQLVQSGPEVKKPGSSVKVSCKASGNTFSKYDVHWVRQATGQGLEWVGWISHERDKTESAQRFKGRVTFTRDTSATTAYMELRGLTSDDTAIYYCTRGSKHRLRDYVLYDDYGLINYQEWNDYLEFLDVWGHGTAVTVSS
5345_I01 (PGT-137) (antibody), sequence (VH): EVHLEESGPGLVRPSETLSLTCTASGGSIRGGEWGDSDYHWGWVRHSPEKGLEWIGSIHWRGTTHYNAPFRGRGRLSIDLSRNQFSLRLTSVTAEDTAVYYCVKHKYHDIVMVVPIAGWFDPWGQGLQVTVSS
5345_I01 (PGT-137) (antibody), sequence (VL): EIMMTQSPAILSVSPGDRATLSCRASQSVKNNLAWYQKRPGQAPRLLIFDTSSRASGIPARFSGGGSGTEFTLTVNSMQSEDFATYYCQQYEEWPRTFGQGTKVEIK
5329_C19 (PGT-136) (antibody), sequence (VH): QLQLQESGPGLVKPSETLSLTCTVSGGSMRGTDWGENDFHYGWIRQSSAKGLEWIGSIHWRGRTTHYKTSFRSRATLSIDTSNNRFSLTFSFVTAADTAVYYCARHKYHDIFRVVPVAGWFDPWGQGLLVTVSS
5329_C19 (PGT-136) (antibody), sequence (VL): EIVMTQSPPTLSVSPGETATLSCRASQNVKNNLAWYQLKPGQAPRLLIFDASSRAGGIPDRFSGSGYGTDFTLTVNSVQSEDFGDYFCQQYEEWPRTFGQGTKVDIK

Substance: 5147_N06 (PGT-130) (antibody)
- IC50, pseudovirus neutralization [1]: > 10 µg/mL
- IC50 (µg/mL), pseudovirus neutralization [2]: > 50 µg/mL
- IC50, pseudovirus neutralization [3]: 0.947 µg/mL
- Fold IC50 increase relative to wild-type [4]: > 77.9 fold
- IC50, pseudovirus neutralization [5]: 0.0345 µg/mL
- IC50, pseudovirus neutralization [6]: > 10 µg/mL
- Fold IC50 increase relative to wild-type [7]: 6.9 fold

Substance: PGT-141 (4964_G22; 4993_K13) (antibody)
- IC50, pseudovirus neutralization [8]: > 10 µg/mL
- IC50, pseudovirus neutralization [9]: > 10 µg/mL
- IC50, pseudovirus neutralization [10]: 5.08 µg/mL
- IC50, pseudovirus neutralization [11]: > 10 µg/mL
- IC50, pseudovirus neutralization [12]: 0.0016 µg/mL
- IC50, pseudovirus neutralization [13]: > 10 µg/mL
- IC50, pseudovirus neutralization [14]: 0.616 µg/mL
- IC50, pseudovirus neutralization [15]: 0.856 µg/mL
- IC50, pseudovirus neutralization [16]: 0.822 µg/mL

Substance: 5123_A06 (PGT-125) (antibody)
- IC50, pseudovirus neutralization [1]: 2.31 µg/mL
- Fold IC50 increase relative to wild-type [17]: 0.8 fold
- Fold IC50 increase relative to wild-type [18]: 0.8 fold
- Fold IC50 increase relative to wild-type [19]: 0.8 fold
- IC50, pseudovirus neutralization [20]: 0.007 µg/mL
- Fold IC50 increase relative to wild-type [21]: 1.2 fold
- IC50, pseudovirus neutralization [3]: > 10 µg/mL
- IC50, pseudovirus neutralization [22]: 0.013 µg/mL
- IC50 (µg/mL), pseudovirus neutralization [23]: > 50 µg/mL
- Fold IC50 increase relative to wild-type [24]: 2 fold
- IC50, pseudovirus neutralization [5]: 0.0128 µg/mL
- IC50, pseudovirus neutralization [6]: 7.31 µg/mL
- IC50, pseudovirus neutralization [25]: 0.016 µg/mL

Substance: 2F5 (antibody)
- IC90 (neutralization of pseudovirus) [26]: 33.4 µg/mL
- IC90 (neutralization of pseudovirus) [27]: 34.4 µg/mL
- IC90 (neutralization of pseudovirus) [28]: 12.2 µg/mL
- IC90 (neutralization of pseudovirus) [29]: > 50 µg/mL
- IC90 (neutralization of pseudovirus) [30]: > 50 µg/mL
- IC90 (neutralization of pseudovirus) [31]: > 50 µg/mL

Substance: 5345_I01 (PGT-137) (antibody)
- EC50 [32]: 0.1 µg/mL
- IC50 (µg/mL), pseudovirus neutralization [2]: > 50 µg/mL

Substance: PGT-142 (4995_E20) (antibody)
- IC50, pseudovirus neutralization [8]: > 10 µg/mL
- IC50, pseudovirus neutralization [9]: > 10 µg/mL
- IC50, pseudovirus neutralization [10]: 5.42 µg/mL
- IC50, pseudovirus neutralization [11]: > 10 µg/mL
- IC50, pseudovirus neutralization [12]: 0.0017 µg/mL
- IC50, pseudovirus neutralization [13]: > 10 µg/mL
- IC50, pseudovirus neutralization [14]: 0.393 µg/mL
- IC50, pseudovirus neutralization [15]: 0.712 µg/mL
- IC50, pseudovirus neutralization [16]: 0.272 µg/mL

Substance: 2G12 (antibody)
- IC90 (neutralization of pseudovirus) [26]: > 50 µg/mL
- IC90 (neutralization of pseudovirus) [33]: > 50 µg/mL
- IC90 (neutralization of pseudovirus) [27]: 7.57 µg/mL
- IC90 (neutralization of pseudovirus) [28]: > 50 µg/mL
- IC90 (neutralization of pseudovirus) [29]: > 50 µg/mL
- IC90 (neutralization of pseudovirus) [30]: 24.1 µg/mL
- IC90 (neutralization of pseudovirus) [31]: > 50 µg/mL

Substance: 5141_B17 (PGT-126) (antibody)
- IC50, pseudovirus neutralization [1]: 0.0639 µg/mL
- Fold IC50 increase relative to wild-type [19]: 0.4 fold
- IC50, pseudovirus neutralization [20]: 0.008 µg/mL
- Fold IC50 increase relative to wild-type [21]: 0.2 fold
- IC50, pseudovirus neutralization [3]: 1.35 µg/mL
- IC50, pseudovirus neutralization [22]: 0.015 µg/mL
- Fold IC50 increase relative to wild-type [34]: 2.2 fold
- IC50 (µg/mL), pseudovirus neutralization [23]: > 50 µg/mL
- Fold IC50 increase relative to wild-type [24]: 181 fold
- Neutralization IC80 [35]: 0.0316 µg/mL
- Neutralization IC90 [35]: 0.0655 µg/mL
- Neutralization IC95 [35]: 0.128 µg/mL
- neutralization IC50 [35]: 0.0091 µg/mL
- IC50, pseudovirus neutralization [5]: 0.012 µg/mL
- IC50, pseudovirus neutralization [6]: 0.501 µg/mL
- IC50, pseudovirus neutralization [25]: 0.015 µg/mL

Substance: 5329_C19 (PGT-136) (antibody)
- EC50 [32]: 0.1 µg/mL
- IC50 (µg/mL), pseudovirus neutralization [2]: > 50 µg/mL

Substance: 4877_D15 (PGT-122) (antibody)
- IC50, pseudovirus neutralization [1]: 0.867 µg/mL
- IC50, pseudovirus neutralization [20]: 0.036 µg/mL
- IC50, pseudovirus neutralization [3]: > 10 µg/mL
- IC50, pseudovirus neutralization [22]: 0.017 µg/mL
- IC50 (µg/mL), pseudovirus neutralization [23]: 0.195 µg/mL
- IC50, pseudovirus neutralization [5]: 0.992 µg/mL
- IC50, pseudovirus neutralization [6]: 0.522 µg/mL
- IC50, pseudovirus neutralization [25]: 0.021 µg/mL
